Earlier results as cited in article PMC3086721.
pKd: −log10 of the molar value.

Target: ubiquitin (Homo sapiens) (UniProt P0CG47)

Chain of E2-25K UBA (P61086 157-200): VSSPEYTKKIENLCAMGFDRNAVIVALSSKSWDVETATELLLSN

E2-25K UBA (from UniProt P61086)
pKd: 3.40
